Usually Kd stands for the concentration at which binding is half-saturated. Read a low Kd as tighter binding. Broadly, the koff is the first-order rate constant of dissociation. High values mean a short-lived complex, low ones a long-lived complex.

Holding throughout (test): BLI
Assay [1] deals with T1, OTUB1 V173K (human, UniProt Q96FW1 1-271, V173K).
Assay [2] addresses T2, OTUB1 F133A (human, UniProt Q96FW1 1-271, F133A).
The target in assay [3] is T3, OTUB1 V173D (human, UniProt Q96FW1 1-271, V173D).
Assay [4] has as its target T1, OTUB1 V173K. The source holds these as a separate data set.
Assay [5] addresses T2, OTUB1 F133A. The source holds these as a separate data set.
Assay [6] has as its target T3, OTUB1 V173D. The source holds these as a separate data set.

B1: Ubc13 (E2 ubiquitin-conjugating enzyme) (enzyme)
chain: MAGLPRRIIKETQRLLAEPVPGIKAEPDESNARYFHVVIAGPQDSPFEGGTFKLELFLPEEYPMAAPKVRFMTKIYHPNVDKLGRICLDILKDKWSPALQIRTVLLSIQALLSAPNPDDPLANDVAEQWKTNEAQAIETARAWTRLYAMNNI
Regarding B1, the Kd was found to be 1.76 µM in assay [1], 46.7 µM in assay [2] and 3.02 µM in assay [3]. Further, the values for the koff in assay [4], in assay [5] and in assay [6] were 0.006 s⁻¹, 0.005 s⁻¹ and 0.004 s⁻¹, respectively.

Source of the values: paper PMC11154711 (2024).
